Assay results as given in US20220177589A1 (OXFORD UNIVERSITY INNOVATION, published 2022).
Substitutions are numbered along the chain they refer to.

B1: 831 (antibody, V domains shown)
VH: DVQLQESGPDLVKPSQSLSVTCTVTGYSITSGYSWHWIRQFPGNKLEWMGYIHYSGSTNYNPSLKSRISITRDTSKNQFFLQLSSVTTEDTATYYCASGPHRYDGVWFAYWGQGTLVTVSS
VL: EIVLTQSPTTMAASPGEKITITCSASSSISSNYLHWYQQKPGFSPKLLIYRTSNLASGVPARFSGSGSGTSYSLTIGTMEAEDVATYYCQQGTNIPLTFGAGTKLEIK
B2: 16H2 (antibody, IgG1, V domains shown)
VH: EVQLQQSGPELVQPGASVKISCKASGYTFTDYYMIWVKQSHGKSLEWIGNINPNNGGTTYNQKFKGKATLTVDKSSSTAYMGLPSLTSEDSAVYYCARGGLRPLYFDYWGQGTTLTVSS
VL: NIVMTQSPKSMSMSVGERVTLSCKASENVDTYVSWYQQKPEQSPKLLIYGASNRYTGVPDRFTGSGSATDFTLTISSVQAEDLADYHCGQSYSYPLTFGAGTKLELI
B3: 24H7 (antibody, IgG1, V domains shown)
VH: QVQLQQSGAELVRPGASVTLSCKASGYTFTDYEIHWVKQTLVHGLEWIGPIDPDTGNTAYNQNLKGKAILTADKSSSTAYMELRSLTSEDSAVYYCTRGGYDSDWGFAYWGQGTLVTVSA
VL: DIVMTQATPSVPVTPGESVSISCRSSKSLLHSNGNTFLFWFLQRPGQSPQLLIYRMSDLASGVPDRFSGSGSGTAFTLRISRVEAEDVGIYYCMQHLEYPFTFGSGTKLEIK
B4: 3A9 (antibody, IgG1, V domains shown)
VH: QVQLKQSGAELVRPGASVKLSCKASGYTFTDYYINWVKQRPGQGLEWIARIYPGSGNTYYNEKFKGKATLTAEKSSSTAYMQLSSLTSEDSAVYFCARGYGNSDYWGQGTTLTVSS
VL: DILLTQSPAILSVSPGERVSFSCRASQSIGTRIHWYQQRTNGSPRLLIKYASESISGIPSRFSGSGSGTDFTLSINSVESEDIADYYCQQSNSWPYTFGGGTKLEIK
B5: 15B6 (antibody, IgG1, V domains shown)
VH: QVQLQQPGAELVKPGASVKLSCKASGYTFTSYWMHWVKQRPGQGLEWIGMIHPNSGSTNYNEKFKSKATLTVDKSSSTAYMQLSSLTSEDSAVYYCARKRGGLGDYWGQGTSVTVSS
VL: DIVLTQSPASLAVSLGQRATISCRASKSVSTSGYSYMHWYQQKPGQPPKLLIYLASNLESGVPARFSGSGSGTDFTLNIHPVEEEDAATYYCQHSRELPYTFGGGTKLEIK
B6: 21C7 (antibody, IgG1, V domains shown)
VH: QIQLQQSGPELVKPGASVKISCKASGYAFSSSWMNWVKKRPGKGLEWIGRIYPGDGDANYNGKFKGKATLTADKSSSTAYMQLSSLTSEDSAVYFCAGEGHYYGSGYRWYLDVWGTGTTVTVSS
VL: DIQMTQSPASLSVSVGETVTITCRASENIYSNLAWYQQKQGKSPQLLVYAATNLADGVPSRFSGSGSGTQYSLKINSLQSEDFGSYYCQHFRGAPFTFGSGTKLEIK
B7: 16E1 (antibody, IgG1, V domains shown)
VH: QVQLQQSGAELARPGASVKLSCKASGYTFTSYGISWVKQRTGQGLEWIGEIYPRSGNTYYNEKFKGKATLTADKSSSTAYMELRSLTSEDSAVYFCARGYGSSYGFAYWGQGTLVTVSA
VL: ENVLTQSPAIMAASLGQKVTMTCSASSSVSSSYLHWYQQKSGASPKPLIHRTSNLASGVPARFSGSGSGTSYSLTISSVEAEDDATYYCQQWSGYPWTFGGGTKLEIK
B8: 4H4 (antibody, IgG1, V domains shown)
VH: B7 VH with G99R, Y100R, S102A, S103G, Y104D, A107D, L114T, V115L, A119S
VL: DIQMTQTTSSLSASLGDRVTISCSASQGISNYLNWYQQKPDGTVKLLIYYTSSLHSGVPSRFSGSGSGTDYSLTISNLEPEDIATYYCQQYSKLPFTFGSGTKLEIK
B9: 4B1 (antibody, IgG1, V domains shown)
VH: QVQLQQSGAELARPGASVRLSCKASGYTFTSYGLIWLKQRTGQGLEWIGEIYPRSGSTYYNEWFKGKATLTADKSSNTAFMELRSLTSEDSAVYFCARRRGTGDGFDYWGQGTILTVSS
VL: B8 VL with S92I, K93E
B10: 8B4 (antibody, IgG1, V domains shown)
VH: QVQLQQSGAELARPGASVKLPCKASGYTFTSYGISWVKQRTGQGLEWIGEIYPRSGTTYYNEKFKGKATLTADKSSSTAYMELRSLTSEDSAVYFCARRISSGSGVDYWGQGTTLTVSS
VL: B8 VL with K93E, F96W, S100G
B11: 14D4 (antibody, IgG1, V domains shown)
VH: QVQLQQPGAELVKPRASVKLSCKASGYTFTSYWMHWVKQRPGQGLEWIGMIHPNNGIPNYNEKFKSKATLTVDKSSTTAYMQLSSLTSEDSAVYHCAREGYYGSEGYFDVWGTGTTVTVSS
VL: QIVLTQSPAIMSASPGEKVTMTCSASSSISYIHWYQQKPGTSPKRWIYDTSKLASGVPARFSGSGSGTSYSLTISSMEAEDAATYYCHQRSTYPYTFGGGTKLEIK
B12: 6.2 (antibody, IgG1, V domains shown)
VH: EVKLVESGGGLVKPGGSLKLSCAASGFTLSSYGMSWVRQIPEKRLEWVASIRSDGNTYYPDSVKGRFIISRDNARNILYLQMSSLRSEDTAMYYCTRGGYYGSSPYYWGQGTTLTVSS
VL: DIVMSQSPSSLPVSVGEKISMTCKSSQSLLYSSNQKNYLAWYQQKPGQSPKLLIYWASTRDSGVPDRFIGSGSGTDFTLTINSVKAEDLAVYYCQQYYNYLTFGAGTKLELK

Key:
[1] = target: chimeric BTLA of humanised-BTLA mice (human extracellular region, murine transmembrane and signaling … (human; mouse, UniProt Q7TSA3 184-306, limits assumed); experiment: cell-based or functional assay
[2] = target: full length human BTLA expressed in a Jurkat T cell line (human, UniProt Q7Z6A9 31-289); experiment: cell-based or functional assay

Sequence of chimeric BTLA of humanised-BTLA mice (human extracellular region, murine transmembrane and signaling … (Q7TSA3 other isoform, or with tags, fused parts or gaps mutant limits assumed): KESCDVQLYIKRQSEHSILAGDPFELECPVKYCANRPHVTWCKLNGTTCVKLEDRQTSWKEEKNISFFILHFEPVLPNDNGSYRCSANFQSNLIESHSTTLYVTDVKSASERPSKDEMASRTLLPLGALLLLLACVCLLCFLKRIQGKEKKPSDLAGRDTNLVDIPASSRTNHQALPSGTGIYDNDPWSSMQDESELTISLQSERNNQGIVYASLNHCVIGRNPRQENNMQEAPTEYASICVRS

Row | Binder | AntiCD3/CD28 (CD4 T cell proliferation) repeat 1, % inhibition [1] [%] | AntiCD3/CD28 (CD4 T cell proliferation) repeat 2, % inhibition [1] [%] | AntiCD3/CD28 (CD69+ CD4 T cells) repeat 1, % inhibition [1] [%] | AntiCD3/CD28 (CD69+ CD4 T cells) repeat 2, % inhibition [1] [%] | MLR (CD4 T cell proliferation) repeat 1, % inhibition [1] [%] | MLR (CD4 T cell proliferation) repeat 2, % inhibition [1] [%] | T cell reporter (NFkB signaling), % inhibition [2] [%]
1 | B1 | 10 | 8 | 50 | 53 | 25 | 34 | 24
2 | B2 | 11 | 23 | 51 | 60 | 40 | 26 | 29
3 | B3 | 13 | 23 | 52 | 44 | 23 | 31 | 22
4 | B4 | 9 | 9 | 22 | 34 | 7 | 24 | 27
5 | B5 | 9 | 16 | 13 | 20 | 7 | 13 | 21
6 | B6 | 10 | -4 | 39 | 35 | 8 | 17 | 23
7 | B7 | 4 | 8 | 9 | 23 | 33 | 8 | 22
8 | B8 | 14 | 22 | 43 | 52 | 10 | 17 | 25
9 | B9 | 14 | 18 | 47 | 41 | 33 | 30 | 23
10 | B10 | 20 | 4 | 51 | 47 | 33 | 23 | 24
11 | B11 | 24 | 29 | 43 | 52 | 39 | 26 | 16
12 | B12 | 19 | 21 | 53 | 61 | 31 | 35 | 26
